# Reference: US20240116985A1 (published 2024)
# Starred links: 1 amine or outer side, 2 acyl side, 3 side chain; linkers in the order of their positions; H or OH if unused. Positions of bridges follow the written chain, without caps; N, C: chain ends. Non-standard residues stand in square brackets, D forms with d. Primed or numbered codes have the meaning given here. PyrS2(3) = (S)-3-amino-1-((pent-4-en-1-yloxy)carbonyl)pyrrolidine-3-carboxylic acid, stapling residue, C=CCCCOC(=O)N1CC[C@@](N[*:1])(C(=O)[*:2])C1; PyrS2″ = (S)-3-amino-1-((pent-4-en-1-yloxy)carbonyl)pyrrolidine-3-carboxylic acid (stapling residue), C=CCCCOC(=O)N1CC[C@@](N[*:1])(C(=O)[*:2])C1; B5(16) = 2-amino-2-(pent-4-en-1-yl)hept-6-enoic acid = 2,2-bis(4-pentenyl)glycine (stitching residue), C=CCCCC(CCCC=C)(N[*:1])C(=O)[*:2]; B5(4) = 2,2-bis(4-pentenyl)glycine = 2-amino-2-(pent-4-en-1-yl)hept-6-enoic acid (stitching residue), C=CCCCC(CCCC=C)(N[*:1])C(=O)[*:2]; B5(20) = 2-amino-2-(pent-4-en-1-yl)hept-6-enoic acid = bis(4-pentenyl)glycine, stitching residue, C=CCCCC(CCCC=C)(N[*:1])C(=O)[*:2]; TfeGA = (S)-2-amino-3-((carboxymethyl)(2,2,2-trifluoroethyl)amino)propanoic acid, O=C([C@H](CN(CC(=O)[*:3])CC(F)(F)F)N[*:1])[*:2]; PyrS2 = (S)-3-amino-1-((pent-4-en-1-yloxy)carbonyl)pyrrolidine-3-carboxylic acid, C=CCCCOC(=O)N1CC[C@@](N[*:1])(C(=O)[*:2])C1; MePpzAsn = (S)-2-amino-4-(4-methylpiperazin-1-yl)-4-oxobutanoic acid, CN1CCN(C(=O)C[C@H](N[*:1])C(=O)[*:2])CC1; F2PipNva = (S)-2-amino-5-(4,4-difluoropiperidin-1-yl)pentanoic acid, O=C([C@H](CCCN1CCC(F)(F)CC1)N[*:1])[*:2]; MorphAsn = (S)-2-amino-4-morpholino-4-oxobutanoic acid, O=C(C[C@H](N[*:1])C(=O)[*:2])N1CCOCC1; B5(3) = 2,2-bis(4-pentenyl)glycine (stitching residue), C=CCCCC(CCCC=C)(N[*:1])C(=O)[*:2]; B5″ = 2,2-bis(4-pentenyl)glycine, stitching residue, C=CCCCC(CCCC=C)(N[*:1])C(=O)[*:2]; Nva(5-morpholino) = N[C@@H](CCCN1CCOCC1)C(=O)O; Phe(3-COOH) = N[C@@H](Cc1cccc(C(=O)O)c1)C(=O)O; 2F3MeF = Cc1cccc(C[C@H](N[*:1])C(=O)[*:2])c1F; Phe(3-CN) = N#Cc1cccc(C[C@H](N)C(=O)O)c1; Phe(4-CN) = N#Cc1ccc(C[C@H](N)C(=O)O)cc1; Phe(2-Cl) = N[C@@H](Cc1ccccc1Cl)C(=O)O; Bta = N[C@@H](Cc1csc2ccccc12)C(=O)O; Lys(iPr) = CC(C)NCCCC[C@H](N)C(=O)O; αAllylPro = C=CC[C@@]1(C(=O)O)CCCN1; tBuAla = CC(C)(C)C[C@H](N)C(=O)O; 3Thi = N[C@@H](Cc1ccsc1)C(=O)O; S8 = C=CCCCCCC[C@](C)(N)C(=O)O
# T1: full-length beta-Catenin (Uniprot ID P35222) (Homo sapiens (Human), UniProt P35222 1-781)
# T1 construct: also called bCat; B-Catenin
# T1 sequence: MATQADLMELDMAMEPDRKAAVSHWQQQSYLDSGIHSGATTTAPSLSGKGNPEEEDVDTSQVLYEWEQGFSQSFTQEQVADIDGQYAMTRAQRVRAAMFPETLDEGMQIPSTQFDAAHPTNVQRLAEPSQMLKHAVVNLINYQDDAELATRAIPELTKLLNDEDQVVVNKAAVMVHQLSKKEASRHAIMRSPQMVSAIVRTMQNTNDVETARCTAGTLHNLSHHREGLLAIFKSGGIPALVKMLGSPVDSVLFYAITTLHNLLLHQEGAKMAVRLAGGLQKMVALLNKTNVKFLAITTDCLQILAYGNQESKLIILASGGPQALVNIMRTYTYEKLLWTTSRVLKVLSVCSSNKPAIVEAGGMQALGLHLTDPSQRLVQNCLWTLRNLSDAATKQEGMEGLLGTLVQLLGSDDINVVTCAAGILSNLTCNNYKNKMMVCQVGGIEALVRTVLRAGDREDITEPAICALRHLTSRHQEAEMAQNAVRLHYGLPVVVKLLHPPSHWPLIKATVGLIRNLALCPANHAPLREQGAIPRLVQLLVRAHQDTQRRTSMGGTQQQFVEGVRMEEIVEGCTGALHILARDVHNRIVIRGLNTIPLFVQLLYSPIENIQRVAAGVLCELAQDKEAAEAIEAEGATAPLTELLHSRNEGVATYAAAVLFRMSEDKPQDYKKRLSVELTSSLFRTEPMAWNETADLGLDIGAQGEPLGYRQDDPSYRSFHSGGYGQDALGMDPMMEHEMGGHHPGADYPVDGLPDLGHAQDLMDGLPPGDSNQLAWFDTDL
# T2: B-cat-Halo (UniProt P35222 1-781)
# T2 sequence (looked up): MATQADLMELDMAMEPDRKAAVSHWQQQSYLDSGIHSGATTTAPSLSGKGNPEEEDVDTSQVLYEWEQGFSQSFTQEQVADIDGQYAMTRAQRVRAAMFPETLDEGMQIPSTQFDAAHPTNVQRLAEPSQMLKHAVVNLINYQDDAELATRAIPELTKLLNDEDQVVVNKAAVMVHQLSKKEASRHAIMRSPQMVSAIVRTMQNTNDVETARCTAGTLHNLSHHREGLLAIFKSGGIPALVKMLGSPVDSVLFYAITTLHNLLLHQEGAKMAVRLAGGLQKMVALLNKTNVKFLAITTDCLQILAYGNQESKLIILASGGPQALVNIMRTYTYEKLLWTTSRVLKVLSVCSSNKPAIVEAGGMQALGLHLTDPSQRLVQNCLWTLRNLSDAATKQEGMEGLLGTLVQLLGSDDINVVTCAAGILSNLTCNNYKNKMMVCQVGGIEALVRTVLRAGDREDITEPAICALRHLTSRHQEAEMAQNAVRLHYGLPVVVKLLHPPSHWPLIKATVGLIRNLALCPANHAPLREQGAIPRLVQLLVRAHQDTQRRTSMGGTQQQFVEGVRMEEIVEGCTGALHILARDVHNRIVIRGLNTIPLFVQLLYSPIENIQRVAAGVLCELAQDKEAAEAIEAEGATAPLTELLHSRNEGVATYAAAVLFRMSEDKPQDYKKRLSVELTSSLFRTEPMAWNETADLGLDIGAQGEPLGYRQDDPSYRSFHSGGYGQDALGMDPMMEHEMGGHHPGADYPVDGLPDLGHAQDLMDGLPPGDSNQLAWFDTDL
# T3: B-cat-Halo (beta-catenin HaloTag construct expressed in HEK293 cells) (UniProt P35222 1-781)
# T3 sequence (looked up): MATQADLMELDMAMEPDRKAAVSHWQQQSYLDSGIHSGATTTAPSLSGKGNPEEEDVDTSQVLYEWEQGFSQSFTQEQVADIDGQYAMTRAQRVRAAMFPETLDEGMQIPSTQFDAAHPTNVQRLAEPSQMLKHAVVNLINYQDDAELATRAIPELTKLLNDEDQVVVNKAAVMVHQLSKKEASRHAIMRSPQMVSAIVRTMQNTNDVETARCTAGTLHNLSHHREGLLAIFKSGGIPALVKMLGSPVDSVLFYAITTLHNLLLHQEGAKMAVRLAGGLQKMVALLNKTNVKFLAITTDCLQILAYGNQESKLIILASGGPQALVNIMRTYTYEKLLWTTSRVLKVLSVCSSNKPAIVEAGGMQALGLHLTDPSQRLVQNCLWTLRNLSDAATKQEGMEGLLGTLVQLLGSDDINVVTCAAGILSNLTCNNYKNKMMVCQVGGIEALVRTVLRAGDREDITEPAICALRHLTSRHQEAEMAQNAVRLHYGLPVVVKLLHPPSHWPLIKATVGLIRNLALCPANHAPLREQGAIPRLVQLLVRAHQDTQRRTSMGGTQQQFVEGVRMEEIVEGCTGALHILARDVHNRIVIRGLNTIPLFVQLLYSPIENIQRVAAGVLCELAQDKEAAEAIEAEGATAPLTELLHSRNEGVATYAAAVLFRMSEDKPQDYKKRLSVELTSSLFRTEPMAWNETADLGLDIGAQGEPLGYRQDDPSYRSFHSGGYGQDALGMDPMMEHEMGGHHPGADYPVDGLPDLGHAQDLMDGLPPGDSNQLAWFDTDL
# T4: full-length beta-Catenin (Uniprot ID P35222) (Homo sapiens (Human), UniProt P35222 2-781)
# T4 construct: also called bCat; B-Catenin
# T4 sequence: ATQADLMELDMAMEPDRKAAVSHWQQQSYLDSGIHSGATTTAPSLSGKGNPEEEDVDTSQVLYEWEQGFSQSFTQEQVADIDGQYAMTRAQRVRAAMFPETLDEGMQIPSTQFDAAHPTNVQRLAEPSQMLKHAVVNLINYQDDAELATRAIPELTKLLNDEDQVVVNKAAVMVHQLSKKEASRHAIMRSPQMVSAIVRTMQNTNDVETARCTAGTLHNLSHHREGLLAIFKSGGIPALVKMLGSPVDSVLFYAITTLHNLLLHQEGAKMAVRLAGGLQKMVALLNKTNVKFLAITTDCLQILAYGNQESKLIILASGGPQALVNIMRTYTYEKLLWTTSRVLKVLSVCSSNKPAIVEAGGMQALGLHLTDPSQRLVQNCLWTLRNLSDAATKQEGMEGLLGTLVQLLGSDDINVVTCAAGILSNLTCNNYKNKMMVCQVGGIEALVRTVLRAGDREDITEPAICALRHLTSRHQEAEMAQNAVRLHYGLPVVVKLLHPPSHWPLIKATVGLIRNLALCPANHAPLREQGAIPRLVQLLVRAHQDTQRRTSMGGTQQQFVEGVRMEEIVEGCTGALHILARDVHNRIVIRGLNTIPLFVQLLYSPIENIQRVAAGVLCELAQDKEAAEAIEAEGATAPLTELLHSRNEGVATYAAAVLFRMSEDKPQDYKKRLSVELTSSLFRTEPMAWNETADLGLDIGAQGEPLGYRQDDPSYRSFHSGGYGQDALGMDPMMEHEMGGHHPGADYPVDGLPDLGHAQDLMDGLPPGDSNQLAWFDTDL
# Target: T1, full-length beta-Catenin (Uniprot ID …)
# Experiment: FP competition: full-length beta-catenin 10 nM + 5FAM-TCF4(10-53) 10 nM
# Protocol: (§1) The plate was incubated protected from light for 60 minutes at 20° C. prior to read. Reads were performed on a CLARIOstar plate reader (BMG Labtech) in duplicate, and data were fitted to a 1:1 binding model with hill slope using an in-house script. All provided concentrations are final concentrations.
row,IC50,Binder
1,0.192 µM,XDAXDEAAFQXFXT (not fully specified; Ac-PL3-Asp-Ala-B5-Asp-Glu-Ala-Ala-Phe-Gln-S8-Phe-BztA-Thr-NH2; stapled by olefin metathesis (PL3-B5 and B5-S8)) [I-507]
2,0.073 µM,"Ac-[αAllylPro]DA[B5(20)]DEAAFQ[S8]F[Bta]T-NH2 (staple 1-4, 4-11; also: later-eluting HPLC peak of staple isomers) [I-508]"
3,0.098 µM,XDIXDEAAFQXFXQ (not fully specified; Ac-PL3-Asp-Ile-B5-Asp-Glu-Ala-Ala-Phe-Gln-S8-2OMeF-BztA-Gln-NH2; stapled by olefin metathesis (PL3-B5 and B5-S8)) [I-527]
4,0.063 µM,XDIXDEAAFQXFXQ (not fully specified; Ac-PL3-Asp-Ile-B5-Asp-Glu-Ala-Ala-Phe-Gln-S8-2OMeF-BztA-Gln-NH2; stapled by olefin metathesis (PL3-B5 and B5-S8)) [I-528]

# Target: T2, B-cat-Halo
# Experiment: cell-based or functional assay
row,NanoBRET Abs IC50,Binder
1,15.1 µM,"Ac-[αAllylPro]D[tBuAla][B5(4)]D[Phe(3-COOH)]AAFL[PyrS2][2F3MeF][Bta][F2PipNva]-NH2 (staple 1-4, 4-11) [I-1608]"
2,6.4 µM,"Ac-[αAllylPro]D[tBuAla][B5(3)]D[Phe(3-COOH)]AAFL[PyrS2″][2F3MeF][Bta][MorphAsn]-NH2 (staple 1-4, 4-11) [I-1614]"
3,> 20 µM,"Ac-[αAllylPro]N[tBuAla][B5(4)]DT[Lys(iPr)]AFN[PyrS2]F[Bta]Q-NH2 (staple 1-4, 4-11) [I-1602]"
4,6.7 µM,"Ac-[αAllylPro]D[tBuAla][B5(3)]D[TfeGA]AAFT[PyrS2][Phe(2-Cl)][Bta][Nva(5-morpholino)]-NH2 (staple 1-4, 4-11) [I-1609]"
5,9.8 µM,"Ac-[αAllylPro]D[tBuAla][B5(3)]D[TfeGA]AAFT[PyrS2″][Phe(2-Cl)][Bta][MePpzAsn]-NH2 (staple 1-4, 4-11) [I-1611]"
6,4.1 µM,"Ac-[αAllylPro]D[tBuAla][B5(3)]D[Phe(3-COOH)]AAFL[PyrS2][2F3MeF][Bta][Nva(5-morpholino)]-NH2 (staple 1-4, 4-11) [I-1610]"
7,5.2 µM,"Ac-[αAllylPro]D[tBuAla][B5(3)]D[TfeGA]AAFT[PyrS2″][Phe(2-Cl)][Bta][MorphAsn]-NH2 (staple 1-4, 4-11) [I-1613]"
8,11.9 µM,"Ac-[αAllylPro]D[tBuAla][B5(4)]D[TfeGA]AAFT[PyrS2][Phe(2-Cl)][Bta][F2PipNva]-NH2 (staple 1-4, 4-11) [I-1607]"

# Target: T3, B-cat-Halo (beta-catenin HaloTag …)
# Experiment: cell-based or functional assay
row,NanoBRET Abs IC50,Binder
1,19.6 µM,"Ac-[αAllylPro]D[tBuAla][B5″]DDAA[Phe(3-CN)]L[PyrS2(3)][3Thi][Bta]Q-NH2 (staple 1-4, 4-11) [I-1201]"
2,16.3 µM,"Ac-[αAllylPro]D[tBuAla][B5″]DDAA[Phe(4-CN)]L[PyrS2(3)][3Thi][Bta]Q-NH2 (staple 1-4, 4-11) [I-1202]"

# Target: T4, full-length beta-Catenin (Uniprot ID …)
# Experiment: fluorescence polarization competition vs 5FAM-TCF4(10-53) on full-length beta-catenin
# Protocol: as §1
row,IC50,Binder
1,0.06 µM,"Ac-[αAllylPro]DF[B5(16)]DDLLFS[PyrS2″][Phe(2-Cl)][Bta]Q-NH2 (staple 1-4, 4-11, Stapled (stitched) peptide composition; olefin isomer not specified) [I-1155]"
2,0.045 µM,"Ac-[αAllylPro]DF[B5(16)]DDALFS[PyrS2″][Phe(2-Cl)][Bta]Q-NH2 (staple 1-4, 4-11, Stapled (stitched) peptide composition; olefin isomer not specified) [I-1154]"
